Reference: patent US20230159603A1 (published 2023)

B1: recombinant human IL-12 (rhIL-12) control (ligand)
chain 1: IWELKKDVYVVELDWYPDAPGEMVVLTCDTPEEDGITWTLDQSSEVLGSGKTLTIQVKEFGDAGQYTCHKGGEVLSHSLLLLHKKEDGIWSTDILKDQKEPKNKTFLRCEAKNYSGRFTCWWLTTISTDLTFSVKSSRGSSDPQGVTCGAATLSAERVRGDNKEYEYSVECQEDSACPAAEESLPIEVMVDAVHKLKYENYTSSFFIRDIIKPDPPKNLQLKPLKNSRQVEVSWEYPDTWSTPHSYFSLTFCVQVQGKSKREKKDRVFTDKTSATVICRKNASISVRAQDRYYSSSWSEWASVPCS
chain 2: RNLPVATPDPGMFPCLHHSQNLLRAVSNMLQKARQTLEFYPCTSEEIDHEDITKDKTSTVEACLPLELTKNESCLNSRETSFITNGSCLASRKTSFMMALCLSSIYEDLKMYQVEFKTMNAKLLMDPKRQIFLDQNMLAVIDELMQALNFNSETVPQKSSLEEPDFYKTKIKLCILLHAFRIRAVTIDRVMSYLNAS
B2: rhIL-12RB2-Fc (Fc fusion)
chain: KIDACKRGDVTVKPSHVILLGSTVNITCSLKPRQGCFHYSRRNKLILYKFDRRINFHHGHSLNSQVTGLPLGTTLFVCKLACINSDEIQICGAEIFVGVAPEQPQNLSCIQKGEQGTVACTWERGRDTHLYTEYTLQLSGPKNLTWQKQCKDIYCDYLDFGINLTPESPESNFTAKVTAVNSLGSSSSLPSTFTFLDIVRPLPPWDIRIKFQKASVSRCTLYWRDEGLVLLNRLRYRPSNSRLWNMVNVTKAKGRHDLLDLKPFTEYEFQISSKLHLYKGSWSDWSESLRAQTPEEEPTGMLDVWYMKRHIDYSRQQISLFWKNLSVSEARGKILHYQVTLQELTGGKAMTQNITGHTSWTTVIPRTGNWAVAVSAANSKGSSLPTRINIMNLCEAGLLAPRQVSANSEGMDNILVTWQPPRKDPSAVQEYVVEWRELHPGGDTQVPLNWLRSRPYNVSALISENIKSYICYEIRVYALSGDQGGCSSILGNSKHKAPLSGPHINAITEEKGSILISWNSIPVQEQMGCLLHYRIYWKERDSNSQPQLCEIPYRVSQNSHPINSLQPRVTYVLWMTALTAAGESSHGNEREFCLQGKAN

Experiments:
Experiment in all cases: SPR; KD estimated
rhIL-12RB2-Fc = target: B2
rhIL-12RB1-Fc = rhIL-12RB1-Fc (human, UniProt P42701 24-545)
AK384 = target: AK384

Binder	Kd (rhIL-12RB2-Fc)	Kd (rhIL-12RB1-Fc)	Kd (AK384)
B1	0.617 nM	60.1 nM	
B2			1.7 nM
